Results: US20220009991A1

Target: IGF-1 receptor (UniProt P08069)
Test: cell-based or functional assay

UniProt P08069, sequence (P08069 31-1367): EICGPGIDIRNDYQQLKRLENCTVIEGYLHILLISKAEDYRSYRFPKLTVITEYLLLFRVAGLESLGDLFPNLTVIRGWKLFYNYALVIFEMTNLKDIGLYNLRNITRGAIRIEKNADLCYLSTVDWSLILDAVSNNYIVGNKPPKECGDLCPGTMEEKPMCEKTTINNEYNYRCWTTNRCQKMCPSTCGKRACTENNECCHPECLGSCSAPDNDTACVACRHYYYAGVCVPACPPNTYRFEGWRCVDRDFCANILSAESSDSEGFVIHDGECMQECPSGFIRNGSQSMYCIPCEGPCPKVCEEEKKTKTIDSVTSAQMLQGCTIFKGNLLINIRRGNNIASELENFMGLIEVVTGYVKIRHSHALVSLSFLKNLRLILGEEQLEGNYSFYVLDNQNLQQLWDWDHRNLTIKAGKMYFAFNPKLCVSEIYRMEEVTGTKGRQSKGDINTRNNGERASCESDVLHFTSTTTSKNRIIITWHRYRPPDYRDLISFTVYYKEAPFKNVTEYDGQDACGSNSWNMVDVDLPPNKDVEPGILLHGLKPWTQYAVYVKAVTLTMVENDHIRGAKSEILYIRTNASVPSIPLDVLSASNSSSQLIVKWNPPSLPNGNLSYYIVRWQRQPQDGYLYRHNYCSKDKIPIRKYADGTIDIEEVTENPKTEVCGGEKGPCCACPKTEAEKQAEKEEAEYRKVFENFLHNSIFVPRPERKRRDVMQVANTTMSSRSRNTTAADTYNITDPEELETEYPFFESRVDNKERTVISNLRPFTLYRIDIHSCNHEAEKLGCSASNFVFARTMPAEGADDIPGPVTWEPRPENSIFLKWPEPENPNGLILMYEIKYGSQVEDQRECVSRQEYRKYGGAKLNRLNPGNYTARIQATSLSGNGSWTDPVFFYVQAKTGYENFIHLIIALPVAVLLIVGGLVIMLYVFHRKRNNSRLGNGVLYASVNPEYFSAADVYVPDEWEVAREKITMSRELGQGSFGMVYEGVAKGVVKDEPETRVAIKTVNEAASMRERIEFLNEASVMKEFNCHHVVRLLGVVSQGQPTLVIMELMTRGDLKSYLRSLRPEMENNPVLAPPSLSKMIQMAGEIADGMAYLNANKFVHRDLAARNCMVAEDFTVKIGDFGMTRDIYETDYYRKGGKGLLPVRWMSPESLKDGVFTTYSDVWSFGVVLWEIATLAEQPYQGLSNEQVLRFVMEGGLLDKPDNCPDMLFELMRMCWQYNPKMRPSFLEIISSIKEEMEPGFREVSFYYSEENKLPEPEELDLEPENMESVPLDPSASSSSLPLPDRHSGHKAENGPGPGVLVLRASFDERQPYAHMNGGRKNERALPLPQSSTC

- pAKT EC50 (concentration needed to achieve the half maximal level of pAKT signaling), healthy iPSC-derived cardiomyocytes, pAKT ELISA: 0.73
Substance: IGF-1 (LR3) (ligand)
